From patent US6864054 (INSTITUTE OF MOLECULAR AND CELL BIOLOGY, dated 2005)

B5: GST-16E6 (other)
chain: MFQDPQERPRKLPQLCTELQTTIHDIILECVYCKQQLLRREVYDFAFRDLCIVYRDGNPYAVCDKCLKFYSKYSEYRHYCYSLYGTTLEQQYNKPLCDLLIRCINCQKPLCPEEKQRHLDKKQRFHNIRGRWTGRCMSCCRSSRTRRETQL
B6: MBP-CBP (residues 1808-1852) fusion protein (other)
chain: GCKRKTNGGCPVCKQLIALCCYHAKHCQENKCPVPFCLNIKHKLR
notes: Bacterially expressed

Experiments:
[1] = target: T1, in vitro translated radiolabeled TFIIB (UniProt Q00403 1-316); experiment: GST micro-column pull-down, IVT protein
T1 sequence (looked up): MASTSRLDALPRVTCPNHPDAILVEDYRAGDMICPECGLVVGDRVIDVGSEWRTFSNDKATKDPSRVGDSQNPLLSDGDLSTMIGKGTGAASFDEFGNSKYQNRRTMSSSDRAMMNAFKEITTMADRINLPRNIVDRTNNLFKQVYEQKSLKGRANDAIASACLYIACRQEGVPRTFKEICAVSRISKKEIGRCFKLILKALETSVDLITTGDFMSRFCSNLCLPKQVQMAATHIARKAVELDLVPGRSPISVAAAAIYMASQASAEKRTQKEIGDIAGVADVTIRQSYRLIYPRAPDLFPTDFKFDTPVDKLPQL

[2] = target: in vitro translated 35S-methionine labelled p53 (wild type) (UniProt P04637 1-393); experiment: GST micro-column pull-down, IVT protein
[3] = target: T2, GST-CBP II (residues 1621-1877) (UniProt P45481 1621-1877); experiment: GST micro-affinity column, IVT E6
T2 construct: also called GST-CBP II domain
T2 sequence: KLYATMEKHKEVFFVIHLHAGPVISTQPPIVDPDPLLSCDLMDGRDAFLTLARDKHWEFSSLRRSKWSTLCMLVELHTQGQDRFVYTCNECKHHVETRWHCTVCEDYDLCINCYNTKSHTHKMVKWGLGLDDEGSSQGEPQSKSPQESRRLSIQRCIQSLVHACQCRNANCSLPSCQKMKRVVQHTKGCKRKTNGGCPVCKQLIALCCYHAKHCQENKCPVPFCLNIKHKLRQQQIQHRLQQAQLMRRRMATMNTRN

[4] = target: T3, GST-CBP I (residues 461-662) (UniProt P45481 461-662); experiment: GST micro-affinity column, IVT radiolabelled E6
T3 construct: range 461-662; also called GST-CBP I (461-662)
T3 sequence: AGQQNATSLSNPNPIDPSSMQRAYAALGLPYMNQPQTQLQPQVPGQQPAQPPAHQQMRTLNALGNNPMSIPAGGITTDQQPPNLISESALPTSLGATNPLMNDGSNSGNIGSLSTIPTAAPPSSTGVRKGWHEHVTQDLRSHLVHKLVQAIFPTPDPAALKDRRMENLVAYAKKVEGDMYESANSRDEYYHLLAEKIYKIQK

GST (control) = target: T4, GST (control) (UniProt P08515 1-218 = GST); experiment: GST micro-affinity column, IVT radiolabelled E6
T4 construct: also called control GST column; GST alone

GST-E6AP = target: T5, GST-E6AP (UniProt Q05086 24-875); experiment: GST-E6AP micro-affinity column, IVT E6
T5 sequence: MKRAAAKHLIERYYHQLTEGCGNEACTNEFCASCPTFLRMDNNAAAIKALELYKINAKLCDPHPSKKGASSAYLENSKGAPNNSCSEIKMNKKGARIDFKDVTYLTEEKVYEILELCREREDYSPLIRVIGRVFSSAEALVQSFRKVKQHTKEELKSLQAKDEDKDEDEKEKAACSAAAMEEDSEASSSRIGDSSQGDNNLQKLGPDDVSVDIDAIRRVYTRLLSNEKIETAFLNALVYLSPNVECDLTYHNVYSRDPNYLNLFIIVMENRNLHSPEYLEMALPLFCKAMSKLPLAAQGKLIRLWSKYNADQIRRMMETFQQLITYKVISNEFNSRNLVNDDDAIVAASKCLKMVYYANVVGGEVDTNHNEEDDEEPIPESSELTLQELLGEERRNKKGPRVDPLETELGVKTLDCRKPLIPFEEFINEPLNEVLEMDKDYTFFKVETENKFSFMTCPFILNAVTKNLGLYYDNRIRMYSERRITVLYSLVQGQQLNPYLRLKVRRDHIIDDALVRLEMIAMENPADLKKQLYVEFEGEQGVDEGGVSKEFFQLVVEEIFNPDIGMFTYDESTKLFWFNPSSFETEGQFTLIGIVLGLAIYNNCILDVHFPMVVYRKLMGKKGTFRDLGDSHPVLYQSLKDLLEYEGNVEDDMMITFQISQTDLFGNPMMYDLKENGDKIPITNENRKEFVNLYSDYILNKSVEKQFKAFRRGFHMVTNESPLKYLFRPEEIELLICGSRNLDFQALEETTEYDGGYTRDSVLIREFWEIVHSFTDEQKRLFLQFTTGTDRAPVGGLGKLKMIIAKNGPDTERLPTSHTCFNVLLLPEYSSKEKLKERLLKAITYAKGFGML

[5] = target: T6, in vitro translated 35S-labeled CBP (1621-1877) (UniProt P45481 1621-1877); experiment: GST-E6 micro-affinity column, IVT CBP II
T6 construct: also called in vitro translated CBP II
T6 sequence (looked up): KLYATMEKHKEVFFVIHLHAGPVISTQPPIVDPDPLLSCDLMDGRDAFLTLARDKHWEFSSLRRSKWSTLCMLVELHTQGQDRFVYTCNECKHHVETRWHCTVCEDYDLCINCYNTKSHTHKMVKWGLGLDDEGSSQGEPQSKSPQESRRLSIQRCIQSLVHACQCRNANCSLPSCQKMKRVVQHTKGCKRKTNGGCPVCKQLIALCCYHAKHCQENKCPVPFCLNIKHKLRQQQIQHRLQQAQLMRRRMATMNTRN

[6] = target: B6; experiment: MBP micro-affinity column, purified recombinant proteins, western blot
GST-16E6 = target: B5; experiment: GST micro-affinity column, purified recombinant proteins, western blot
[7] = target: T6, in vitro translated 35S-labeled CBP …; experiment: GST-E6 fragment micro-affinity column
[8] = target: T7, GST-CBP fusion protein (CBP residues not stated) (UniProt P45481 1621-1877); experiment: GST-CBP micro-affinity column, IVT E6
T7 sequence: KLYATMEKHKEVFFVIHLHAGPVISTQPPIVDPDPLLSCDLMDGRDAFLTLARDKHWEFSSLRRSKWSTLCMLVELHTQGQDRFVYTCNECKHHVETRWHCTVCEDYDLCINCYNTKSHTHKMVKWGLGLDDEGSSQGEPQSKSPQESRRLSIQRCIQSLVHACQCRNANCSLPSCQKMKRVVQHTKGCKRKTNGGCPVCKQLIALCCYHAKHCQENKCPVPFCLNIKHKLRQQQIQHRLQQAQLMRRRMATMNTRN

T4 sequence (P08515 whole entry): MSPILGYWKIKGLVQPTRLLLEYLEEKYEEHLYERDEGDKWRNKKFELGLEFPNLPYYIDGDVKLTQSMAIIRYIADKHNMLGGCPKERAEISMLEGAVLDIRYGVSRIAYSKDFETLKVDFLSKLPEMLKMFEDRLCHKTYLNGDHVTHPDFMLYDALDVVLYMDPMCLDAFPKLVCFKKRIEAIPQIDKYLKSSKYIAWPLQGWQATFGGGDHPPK
in vitro translated 35S-methionine labelled p53 (wild type), sequence (P04637 whole entry, the tested form may be a part): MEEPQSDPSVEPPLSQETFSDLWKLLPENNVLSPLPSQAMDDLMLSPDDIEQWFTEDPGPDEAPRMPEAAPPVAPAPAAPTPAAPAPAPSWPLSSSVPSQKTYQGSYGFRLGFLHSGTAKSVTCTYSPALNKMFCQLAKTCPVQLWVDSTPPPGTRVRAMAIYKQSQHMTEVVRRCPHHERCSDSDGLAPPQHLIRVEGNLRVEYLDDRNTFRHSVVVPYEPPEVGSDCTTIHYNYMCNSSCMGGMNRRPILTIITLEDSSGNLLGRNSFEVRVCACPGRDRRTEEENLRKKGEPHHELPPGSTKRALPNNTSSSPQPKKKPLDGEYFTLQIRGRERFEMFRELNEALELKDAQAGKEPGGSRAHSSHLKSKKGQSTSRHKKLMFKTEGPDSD

B1: GST-CBP (1808-1826) (other, UniProt P45481 1808-1826, looked up, not shown: a dimerising Fc or GST)
chain: GCKRKTNGGCPVCKQLIAL
notes: also called CBP TRAM
[1]
  binding result: binds

B2: GST-Mdm2 (466-484) (other, human, UniProt Q00987 466-484, looked up, not shown: a dimerising Fc or GST)
chain: KKLKKRNKPCPVCRQPIQM
notes: also called wild type Mdm2 TRAM; Mdm2 TRAM
[2]
  binding result: binds
[1]
  binding result: binds

B3: in vitro translated and radiolabeled HPV-16 E6 (other)
chain: MFQDPQERPRKLPQLCTELQTTIHDIILECVYCKQQLLRREVYDFAFRDLCIVYRDGNPYAVCDKCLKFYSKYSEYRHYCYSLYGTTLEQQYNKPLCDLLIRCINCQKPLCPEEKQRHLDKKQRFHNIRGRWTGRCMSCCRSSRTRRETQL
[3]
  binding result: binds
[4]
  binding result: no binding
GST (control)
  binding result: no binding

B4: in vitro translated HPV-16 E6 L50G protein (other)
chain: MFQDPQERPRKLPQLCTELQTTIHDIILECVYCKQQLLRREVYDFAFRDGCIVYRDGNPYAVCDKCLKFYSKYSEYRHYCYSLYGTTLEQQYNKPLCDLLIRCINCQKPLCPEEKQRHLDKKQRFHNIRGRWTGRCMSCCRSSRTRRETQL
GST-E6AP
  binding result: no binding

## B5
[5]
  binding result: binds
[6]
  binding result: binds

## B6
GST-16E6
  binding result: binds

B7: GST-16E6 without C-terminal residues 148-151 (other)
chain: MFQDPQERPRKLPQLCTELQTTIHDIILECVYCKQQLLRREVYDFAFRDLCIVYRDGNPYAVCDKCLKFYSKYSEYRHYCYSLYGTTLEQQYNKPLCDLLIRCINCQKPLCPEEKQRHLDKKQRFHNIRGRWTGRCMSCCRSSRTRR
[7]
  binding result: binds

B8: GST-16E6 C-terminal half (85-151) (other)
chain: GTTLEQQYNKPLCDLLIRCINCQKPLCPEEKQRHLDKKQRFHNIRGRWTGRCMSCCRSSRTRRETQL
[7]
  binding result: binds

B9: GST-16E6 (amino acids 100-147) (other)
chain: LIRCINCQKPLCPEEKQRHLDKKQRFHNIRGRWTGRCMSCCRSSRTRR
[7]
  binding result: binds

B10: GST-16E6 N-terminal half (1-84) (other)
chain: MFQDPQERPRKLPQLCTELQTTIHDIILECVYCKQQLLRREVYDFAFRDLCIVYRDGNPYAVCDKCLKFYSKYSEYRHYCYSLY
[7]
  binding result: no binding

B11: GST-6E6 (other)
chain: MESANASTSATTIDQLCKTFNLSMHTLQINCVFCKNALTTAEIYSYAYKHLKVLFRGGYPYAACACCLEFHGKINQYRHFDYAGYATTVEEETKQDILDVLIRCYLCHKPLCEVEKVKHILTKARFIKLNCTWKGRCLHCWTTCMEDMLP
notes: mature
[5]
  binding result: no binding

B12: GST-11E6 (other)
chain: MESKDASTSATSIDQLCKTFNLSLHTLQIQCVFCRNALTTAEIYAYAYKNLKVVWRDNFPFAACACCLELQGKINQYRHFNYAAYAPTVEEETNEDILKVLIRCYLCHKPLCEIEKLKHILGKARFIKLNNQWKGRCLHCWTTCMEDLLP
[5]
  binding result: no binding

B13: in vitro translated HPV-11 E6 protein (other)
chain: MESKDASTSATSIDQLCKTFNLSLHTLQIQCVFCRNALTTAEIYAYAYKNLKVVWRDNFPFAACACCLELQGKINQYRHFNYAAYAPTVEEETNEDILKVLIRCYLCHKPLCEIEKLKHILGKARFIKLNNQWKGRCLHCWTTCMEDLLP
notes: mature
[8]
  binding result: no binding
GST-E6AP
  binding result: no binding
